Results as given in patent US10829545 (MIT, dated 2020).

How the values were obtained:
[1] = target: T1, Zika virus envelope protein (EP), strain ILM (Brazil Paraiba 2015), on whole virus (Zika virus)
T1 construct: also called Zika strain ILM

[2] = target: T1, Zika virus envelope protein (EP), …; assay: cell-based or functional assay

B1: mAb 7 (antibody, V domains shown)
VH: EVQLLESGGGLVQPGGSLRLSCAASGFSFSTYSMHWVRQAPGKGLEWVSAISGEGDSAYYADSVKGRFEISRDNSKNTLYLQMNKVRAEDTAVYYCVGGYSNFYYYYTMDAWGQGTMVTVSS
VL: DIVMTQSPASLSLSPGERATLSCRATQSIVTFLAWYQQKPGQAPRLLIYDASTNASGIPARFSGSRSGTDFTLTITRLEPEDFAVYYCQQRYNWPPYSFGQGTKLEIK
notes: also called VH.2 / VL.4
- Kd [1]: 5.21 µg/mL

B2: mAb 6 (antibody, V domains shown)
VH: EVQLVESGGGLVQPGGSLRLSCSASGFSFSTYSMHWVRQAPGKGLEYVSAITGEGDSAFYADSVKGRFTISRDNSKNTLYFEMNSLRPEDTAVYYCVGGYSNFYYYYTMDAWGQGTSVTVSS
VL: EIVLTQSPASLSLSPGERATLSCRATQSISTFLAWYQHKPGQAPRLLIYDASTRASGVPARFSGSRSGTDFTLTISSLEPEDFAVYYCQQRYNWPPYSFGQGTKVEIK
notes: also called VH.3 / VL.1
- Kd [1]: 3.85 µg/mL
- PRNT50 (plaque reduction neutralization test on BHK-21 cells) [2]: 0.0597 µg/mL

B3: mAb 8 (antibody, V domains shown)
VH: EVQLLESGGGLVQPGGSLRLSCAASGFSFSTYSMHWVRQAPGKGLEWVSAISGEGDSAYYADSVKGRFTISRDNSKNTLYLQMNKVRAEDTAVYYCVGGYSNFYYYYTMDAWGQGTMVTVSS
VL: DIVMTQSPASLSLSPGERATLSCRATQSISTFLAWYQQKPGQAPRLLIYDASTRASGIPARFSGSRSGTDFTLTITRLEPEDFAVYYCQQRYNWPPYSFGQGTKLEIK
notes: also called VH.1 / VL.2
- Kd [1]: 19.3 µg/mL
- PRNT50 (plaque reduction neutralization test on BHK-21 cells) [2]: 5.12 µg/mL

B4: fusion loop targeting pan-flavivirus antibody (4G2) (antibody, V domains shown)
VH: EVQLQQSGPELVKPGTSVKISCKTSGYTFTEYTIHWVKQSHGKSLAWIGGIDPNSGGTNYSPNFKGKATLTVDKSSSTAYMDLRSLSSEDSAVYFCARIYHYDGYFDVWGAGTAVTVSS
VL: DIKMTQSPSSMYASLGERVTITCKASQDINSYLTWFQQKPGKSPKTLIYRANRLIDGVPSRFSGSGSGQDYSLTISSLDYEDMGIYYCLQYDEFPPTFGGGTKLEIKR
- Kd [1]: 6.41 µg/mL
